# Source: US20180245075
# Columns and labels:
# [1] = biological target: T1, DpnI binding domain-VP64 (synR-VP64) (Streptococcus pneumoniae) (UniProt P0A459); experiment: cell_activity; settings: N6-methyladenine at A of GATC; integrated interspersed reporter with synI; >100-fold episomal with ZF-Dam(WT)
# T1 sequence: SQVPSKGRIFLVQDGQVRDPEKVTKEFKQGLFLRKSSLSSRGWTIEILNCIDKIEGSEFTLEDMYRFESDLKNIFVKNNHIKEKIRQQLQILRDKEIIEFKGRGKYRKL
# [2] = biological target: T2, DpnI binding domain-Dam(R95A) (synRW) (Streptococcus pneumoniae / Escherichia coli) (UniProt P0AEE8); experiment: cell_activity; settings: N6-methyladenine at A of GATC; with inducible writer and DpnI-VP64; mCherry-Dam(R95A) gave no increase
# T2 sequence: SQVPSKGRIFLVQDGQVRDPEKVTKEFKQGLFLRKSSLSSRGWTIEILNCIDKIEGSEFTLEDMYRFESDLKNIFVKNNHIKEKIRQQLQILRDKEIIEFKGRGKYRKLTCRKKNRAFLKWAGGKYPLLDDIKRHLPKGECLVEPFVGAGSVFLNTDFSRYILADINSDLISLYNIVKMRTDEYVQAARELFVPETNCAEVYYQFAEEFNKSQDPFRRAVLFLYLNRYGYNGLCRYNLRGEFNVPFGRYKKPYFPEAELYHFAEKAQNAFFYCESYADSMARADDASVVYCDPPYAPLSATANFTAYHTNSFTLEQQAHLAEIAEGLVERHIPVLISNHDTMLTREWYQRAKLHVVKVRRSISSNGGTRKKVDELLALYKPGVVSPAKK
sequence,measurement,setting,value
GATC (double strand) [adenine-methylated GATC sites of reporter],activity (fold GFP activation),[1],30
same,activity (fold increase in GFP activation),[2],2
